Assay results reported in patent US20190241662A1 (ADAGENE, published 2019).
Changes are numbered by the printed parent chain.

T1: human Tim3 on HEK293F cells (human, UniProt Q8TDQ0 22-301)
T1 construct: whole, on cells
T1 sequence (looked up): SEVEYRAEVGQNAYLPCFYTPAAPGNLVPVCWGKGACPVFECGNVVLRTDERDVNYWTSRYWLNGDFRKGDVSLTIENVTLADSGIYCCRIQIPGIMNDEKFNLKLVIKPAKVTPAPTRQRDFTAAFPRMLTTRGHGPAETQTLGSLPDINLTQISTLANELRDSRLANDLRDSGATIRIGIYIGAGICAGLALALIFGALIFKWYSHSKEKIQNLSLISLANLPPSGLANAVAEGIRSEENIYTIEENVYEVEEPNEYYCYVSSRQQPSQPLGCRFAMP

T2: biotinylated rat CTLA4 protein fused with human FC (rat, UniProt Q62859 36-161, Biotinylated; sites not stated)
T2 sequence: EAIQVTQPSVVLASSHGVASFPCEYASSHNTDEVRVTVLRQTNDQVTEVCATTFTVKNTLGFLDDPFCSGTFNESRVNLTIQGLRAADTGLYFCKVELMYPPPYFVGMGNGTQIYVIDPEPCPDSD

T3: human CD95 on HEK293F cells (human, UniProt P25445 26-335)
T3 construct: whole, on cells
T3 sequence (looked up): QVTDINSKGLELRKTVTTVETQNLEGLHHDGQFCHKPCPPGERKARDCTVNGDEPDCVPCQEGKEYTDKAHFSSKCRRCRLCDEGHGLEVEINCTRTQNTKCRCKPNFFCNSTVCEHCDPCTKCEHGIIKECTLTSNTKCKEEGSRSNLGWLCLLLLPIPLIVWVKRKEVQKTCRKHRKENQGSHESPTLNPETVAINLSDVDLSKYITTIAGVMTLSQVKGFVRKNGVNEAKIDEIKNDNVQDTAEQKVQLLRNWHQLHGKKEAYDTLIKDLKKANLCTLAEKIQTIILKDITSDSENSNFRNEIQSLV

T4: human TNFR1 on HEK293F cells (human, UniProt P19438 30-455)
T4 construct: whole, on cells; also called CD120a
T4 sequence (looked up): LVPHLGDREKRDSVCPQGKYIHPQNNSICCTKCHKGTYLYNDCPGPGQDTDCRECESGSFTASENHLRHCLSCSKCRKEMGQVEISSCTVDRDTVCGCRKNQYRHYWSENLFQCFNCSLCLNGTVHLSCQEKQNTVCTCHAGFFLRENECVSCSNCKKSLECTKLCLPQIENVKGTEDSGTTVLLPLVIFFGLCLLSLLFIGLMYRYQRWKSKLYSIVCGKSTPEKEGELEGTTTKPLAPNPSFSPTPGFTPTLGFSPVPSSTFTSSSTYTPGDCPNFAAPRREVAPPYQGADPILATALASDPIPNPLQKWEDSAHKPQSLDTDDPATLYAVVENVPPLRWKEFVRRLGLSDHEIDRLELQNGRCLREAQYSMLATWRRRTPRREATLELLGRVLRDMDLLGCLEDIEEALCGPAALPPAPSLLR

T5: human OX40 on HEK293F cells (human, UniProt P43489 29-277)
T5 construct: whole, on cells
T5 sequence (looked up): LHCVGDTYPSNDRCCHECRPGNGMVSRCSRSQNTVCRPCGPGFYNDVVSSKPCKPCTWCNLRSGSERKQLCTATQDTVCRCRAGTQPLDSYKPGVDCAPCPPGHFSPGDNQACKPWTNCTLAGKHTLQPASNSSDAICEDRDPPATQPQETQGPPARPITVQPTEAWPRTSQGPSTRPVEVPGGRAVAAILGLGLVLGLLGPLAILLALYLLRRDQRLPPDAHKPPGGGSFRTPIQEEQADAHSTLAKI

T6: full-length human CTLA4 expressed on cells (human, UniProt P16410 36-223)
T6 construct: whole, on cells; also called HEK293F/hCTLA-4 cells; HEK293F/hCTLA4 cells
T6 sequence (looked up): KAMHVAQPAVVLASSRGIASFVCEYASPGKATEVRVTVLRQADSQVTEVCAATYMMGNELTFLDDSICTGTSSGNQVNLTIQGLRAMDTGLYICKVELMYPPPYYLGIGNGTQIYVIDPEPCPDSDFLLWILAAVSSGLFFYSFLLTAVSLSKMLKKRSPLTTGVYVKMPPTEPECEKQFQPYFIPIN

B1: TY21691 (antibody, V domains shown)
VH: EVQLVESGGGLVQPGGSLRLSCAASGFTFSDYAIHWVRQAPGKGLEWIGIISPSGGSTKYAQKFQGRVTISRDNSKNTLYLQLNSLRAEDTAVYYCARLGYGYFDVWGQGTLVTVSS
VL: DIQLTQSPSSLSASVGDRVTITCRASQSVDFYGISFLHWYQQKPGKAPKLLIYDASSLESGVPSRFSGSGSGTDFTLTISSLQPEDFATYYCVQALQLPLTFGQGTKVEIK
notes: human IgG1 (hIgG1) from Fab hit B15736
B2: TY21687 (antibody, V domains shown)
VH: EVQLVESGGGLVQPGGSLRLSCAASGFTFSGYAIHWVRQAPGKGLEWIGIISPSGGGTKYAQKFQGRVTISRDNSKNTLYLQLNSLRAEDTAVYYCARHPFAYWGQGTLVTVSS
VL: DIQLTQSPSSLSASVGDRVTITCRASQSVDFYGISFLDWYQQKPGKAPKLLIYDASNRATGIPSRFSGSGSGTDFTLTISSLQPEDFATYYCQQYVSSPPEYTFGQGTKVEIK
notes: human IgG1 (hIgG1) from Fab hit B15700
B3: TY21585 (antibody, V domains shown)
VH: EVQLVESGGGLVQPGGSLRLSCAASGFTFSDYAIHWVRQAPGKGLEWIGIISPSSGSTNYAQKFQGRVTISRDNSKNTLYLQLNSLRAEDTAVYYCARDIHSGSSGYYYGFDVWGQGTLVTVSS
VL: B2 VL with Q27E, Y32F, D38A, Q94H, V96T, E101V
notes: human IgG1 (hIgG1) from Fab hit B15709
B4: TY21591 (antibody, V domains shown)
VH: EVQLVESGGGLVQPGGSLRLSCAASGFSLSTGGVAVSWIRQAPGKGLEWIGEIYHSGSTYYSPSLKSRVTISRDNSKNTLYLQLNSLRAEDTAVYYCARRIATATYFDYWGQGTLVTVSS
VL: DIQLTQSPSSLSASVGDRVTITCRASQTVFSRYLAWYQQKPGKAPKLLIYDASNRATGIPSRFSGSGSGTDFTLTISSLQPEDFATYYCQQSYYWPPWTFGQGTKVEIK
notes: human IgG1 (hIgG1) from Fab hit B15756

Experiments:
[1] = target: T1, human Tim3 on HEK293F cells; experiment: flow cytometry, transfected HEK293F cells
Procedure: (§1) Antibody selectivity was next examined. Human CTLA4, PD1, LAG3, Tim3, B7H3, CD95, TNFR1, OX40, CD40, PD-L1, BLTA, VISTA, PDL2, ICOS and B7H4 were transiently overexpressed on the surface of HEK293F cells. Transfected cells were washed in pre-chilled 1×PBSA buffer (1.76 mM KH2PO4, 10.14 mM Na2HPO4.12H2O, 2.68 mM KCl, 136.89 mM NaCl and 1% BSA), then incubated with 100 nM test antibodies for 1 hour on ice. Cells were washed once with staining buffer, and Alexa Fluor® 647 conjugated mouse anti-human FC antibodies were added and incubated for 30 minutes on ice, protected from light. Samples were washed once with staining buffer prior to analysis by flow cytometry.

[2] = target: T2, biotinylated rat CTLA4 protein fused …; experiment: BLI (ForteBio), biotinylated rat CTLA4-Fc on SA sensor, IgG 15 ug/mL
From the text: The association and dissociation curves were fitted to a 1:1 Langmuir binding model using ForteBio Data Analysis 7.1 (Pall, USA) according to the manufacturer's guidelines.

[3] = target: T3, human CD95 on HEK293F cells; experiment: flow cytometry, transfected HEK293F cells
Procedure: as §1

[4] = target: T4, human TNFR1 on HEK293F cells; experiment: flow cytometry, transfected HEK293F cells
Procedure: as §1

[5] = target: T5, human OX40 on HEK293F cells; experiment: flow cytometry, transfected HEK293F cells
Procedure: as §1

[6] = target: T6, full-length human CTLA4 expressed on …; experiment: flow cytometry blocking: HEK293F cells with human CTLA4, 100 nM antibody, then 100 nM CD86-Fc-Bio (blocked ligand); PBSA panel: Mean 10678, 12.2%
Procedure: Antibodies were also tested for their ability to block binding of CTLA4 to its cognate ligands CD80 and CD86 by flow cytometry. The plasmid encoding full-length human CTLA4 was transiently expressed in HEK293F cells. Cells were washed with staining buffer (PBSA buffer including 1.76 mM KH₂PO₄, 10.14 mM Na₂HPO₄.12H₂O, 2.68 mM KCl, 136.89 mM NaCl and 1% BSA), and resuspended in staining buffer containing 100 nM test antibodies. […] Cells were washed once, and analyzed by CytoFlex flow cytometry.

Binder	binding result [1]	Kd [2]	binding result [3]	binding result [4]	binding result [5]	% of cells in upper right quadrant (CD86-positive) in the presence of the antibody [6]	Mean of the CD86 binding signal in the presence of the antibody [6]
B1	no binding (tested: 100 nM)	0.58 nM					
B2		0.78 nM					
B3			no binding (tested: 100 nM)	no binding (tested: 100 nM)	no binding (tested: 100 nM)	3.43%	5140
B4						0.61%	4960
